Source: publication PMC10107573 (Nature Communications, 2023)

B1: monoclonal antibody 1-1D (human IgG1) (antibody, V domains shown)
VH: EVQLVESGGGLIQPGGSLRLSCAASGFTVSSNYMSWVRQAPGKGLEWVSVIYSGGSTYFADSVKGRFTISRDNSKNTLYLQMNSLRAEDTAVYYCARGELGYSYGMDVWGQGTTVTVSS
VL: QSVLTQPPSVSAAPGQKVTISCSGSSSNIGDNYVSWYQLLPGTAPKLLIYDNNQRPSGIPDRFSGSKSGTSATLGITGLQTGDEADYYCGTWDSSLSTGVFGGGTRLTVL
B2: monoclonal antibody 10-5B (human IgG1) (antibody, V domains shown)
VH: EVQLVESGGGLIQPGGSLRLSCAVSGFTVSRMSWVRQAPGKGLECVSVIYTGGNTDYADSVKGRFTISRDNSKNTLYLQMNSLRAEDTALYYCVRGSGGIHDAFDIWGQGTMVTVSS
VL: DIQMTQSPSSVSASVGDRVTITCRASQGISTWLAWYQQKPGKAPKVLINAASGLQSGVPSRFSGSGSGTDFTLTISSLQPEDFATYYCQQAHSFPPTFGPGTKLEIK

Target: recombinant biotinylated SARS-CoV-2 spike RBD, wild type (SARS-CoV-2, UniProt P0DTC2, biotinylated)
Experiment: BLI
Conditions: both partners purified

Binder | binding result
B1 | binds
B2 | binds
